Measurements reported in US20250011738A1, “HEAT TOLERANT ALKALINE PHOSPHATASE” (BiomEdit, LLC, priority 2021, published 2025).

How the values were obtained:
Type in all cases: biochemical, Paenibacillus lentus
[1] = substrate: Nc1ncnc2c1ncn2[C@@H]1O[C@H](COP(=O)(O)OP(=O)(O)OP(=O)(O)O)[C@@H](O)[C@H]1O; test: Phosphate assay (Malachite green) with UDP, ATP and dAMP, APHT ("HT")
Protocol: (§1) FIG. 9 depicts (A)Vmax (IU/mg) and (B) KM (μM) activity of AP1 (designated “Native”) and APHT (designated “HT”) on UDP, ATP and dAMP. Assays were performed at 40° C. with p substrate concentration 0-5 mM in Tris buffer pH 8. The enzyme concentration was 2 μg/mL.
(§2) FIG. 10 depicts (A)Vmax (IU/mg) and (B) KM (μM) activity of AP1 (designated “Native”) and APHT (designated “HT”) with UDP, ATP and dAMP. Assays were performed at 50° C. with p substrate concentration 0-5 mM in DEA buffer pH 10. The enzyme concentration was 2 μg/mL.
(§3) To further improve the thermal stability, a set of synthetic alkaline phosphatase genes where each amino acid was mutated to other possibilities one at a time was constructed and evaluated. Numerous single amino acids changes improving heat tolerance were combined and incorporated into a mutated alkaline phosphatase version yielding the alkaline phosphatase heat tolerant molecule designated APHT. […] (FIG. 4), and has a total of 16 amino acid changes from the original AP1 sequence (see FIG. 5A and B). In FIG. 5A, the AP1 with a serine mutation is designated as “AP Native” and is depicted in sequence with a leader sequence ASGFYVSGT (SEQ ID NO:13). The AP1 with leader sequence ASGFYVSGT is provided in SEQ ID NO:14). The APHT polypeptide with leader sequence ASGFYVSGT is provided in SEQ ID NO:15). In FIG. 5B, the AP1 with a serine mutation and without any leader sequence or leader peptide amino acids (SEQ ID NO:4) is aligned and compared with the APHT without any leader sequence or leader peptide amino acids (SEQ ID NO:1). The 16 amino acid changes in APHT are evident. The APHT amino acid sequence (excluding and without any leader sequence and starting with amino acids ESSN) is 97% identical to the sequence of AP1 (excluding and without any leader sequence and starting with amino acids ESSN).
(§4) The APHT sequence (SEQ ID NO: 1) is provided below with the amino acid mutations versus the AP1 sequence underlined and in bold.
(§5) 5. Phosphate Assay with Biological Substrates UDP, ATP, and dAMP (Native and HT)
(§6) Phosphatase activity with UDP, ATP and dAMP was assessed by measuring the release of […] with the Malachite green reagent (Sigma) at 40° C. and 50° C. Assay consisted of nucleotide phosphate in the concentration range 0-5 mM, 2 μg/mL AP in a final volume of 100 μL. The reaction was initiated in a 96-well microplate with the addition of enzyme and incubated for 5 min. After this time, 10 μL of reaction were mixed with 90 μL of water 25 μL of Malachite green solution. The microplate was shaken for 20 min at 25° C. and absorption was recorded at 620 nm. As standard pyrophosphate solution in water was used in the concentration range of 0-40 μM. Each experiment was done by triplicated at least.

[2] = substrate: Nc1ncnc2c1ncn2[C@H]1C[C@H](O)[C@@H](COP(=O)(O)O)O1; test: as above
Protocol: as §1, §2, §3, §4, §5, §6

[3] = substrate: O=c1ccn([C@@H]2O[C@H](COP(=O)(O)OP(=O)(O)O)[C@@H](O)[C@H]2O)c(=O)[nH]1; test: as above
Protocol: as §1, §2, §3, §4, §5, §6

[4] = substrate: Nc1ncnc2c1ncn2[C@@H]1O[C@H](COP(=O)(O)OP(=O)(O)OP(=O)(O)O)[C@@H](O)[C@H]1O; test: Dephosphorylation of substrates UDP, ATP and dAMP (Example 4, Table 11); conditions: other: Table 11; conditions not given
Protocol: (§7) The inorganic phosphorous release (μM) from each of these sources by the heat tolerant HTAP was determined and is shown in FIG. 12. […] The inorganic phosphorous release (μM) was also assessed from the metabolically relevant compounds phosphocholine, phosphocreatine and phytic acid and compared with native AP. The heat tolerant HTAP was comparably active vs native AP in Pi release from each of compounds phosphocholine, phosphocreatine and phytic acid (data not shown).
(§8) Dephosphorylation of substrates UDP, ATP and dAMP was also assessed and determined.

[5] = substrate: Nc1ncnc2c1ncn2[C@H]1C[C@H](O)[C@@H](COP(=O)(O)O)O1; test: as above; conditions: other: Table 11; conditions not given
Protocol: as §7, §8

[6] = substrate: O=c1ccn([C@@H]2O[C@H](COP(=O)(O)OP(=O)(O)O)[C@@H](O)[C@H]2O)c(=O)[nH]1; test: as above; conditions: other: Table 11; conditions not given
Protocol: as §7, §8

[7] = substrate: Nc1ncnc2c1ncn2[C@@H]1O[C@H](COP(=O)(O)OP(=O)(O)OP(=O)(O)O)[C@@H](O)[C@H]1O; test: Phosphate assay (Malachite green) with UDP, ATP and dAMP, AP1 ("Native")
Protocol: as §1, §2
(§9) Enzymes, including lysozyme and alkaline phosphatase, are recognized as disruptors of bacterial debris and inflammation. These enzymes reduce inflammation, including by lysing the peptidoglycans and LPS of bacteria, thus deactivating them and thereby bypassing the inflammatory response. An alkaline phosphatase was initially identified and modified from Paenibacillus lentus bacteria and expressed for application and use as a farm animal feed additive. This modified alkaline phosphatase is characterized by having a serine (S) replacement for an aspartic acid (D) in the native bacterial alkaline phosphatase protein sequence and is designated herein as AP1. […] The AP1 alkaline phosphate is described including in U.S. Pat. No. 9,326,535 issued May 3, 2016. The sequence of AP1 is as follows (the serine is in bold and underlined) (SEQ ID NO:4):
as §5, §6

[8] = substrate: Nc1ncnc2c1ncn2[C@H]1C[C@H](O)[C@@H](COP(=O)(O)O)O1; test: as above
Protocol: as §1, §2, §9, §5, §6

[9] = substrate: O=c1ccn([C@@H]2O[C@H](COP(=O)(O)OP(=O)(O)O)[C@@H](O)[C@H]2O)c(=O)[nH]1; test: as above
Protocol: as §1, §2, §9, §5, §6

[10] = other: 40° C., Tris buffer pH 8, enzyme 2 μg/mL, pH 8.0, 40.0 °C
[11] = other: 50° C., DEA buffer pH 10, enzyme 2 μg/mL, pH 10.0, 50.0 °C

B1: Paenibacillus lentus alkaline phosphatase AP1 heat tolerant mutant APHT (designated "HT"), 16 amino acid changes from AP1, SEQ ID NO: 1 (Paenibacillus lentus; … (protein)
chain: ESSNGQSKNLIVLIGDGMGPAQVSAARYFQQHINNINSLNLDPYYVGQATTYADRGEDGGHIVSGIITSSAAAGTAIATGNKTNNAAISVSNEDVSRPFASVHEAAELSGKSTGLVTTARITHATPAVYGSHVRNRDNENAIAFQYLDSGIDVLLGGGESFFVTNEEKGKRNDKNLLPEFEAKGYKVVKNGQSLKSLSAKDAKVLGLFGGSHIPYVPDRSDETPSLAEMTSKALEILSTNENGFAIMIEGGRIDHAAHANDFPTMVQEMLAFDEAFKVAIDFAKKDGNTSVVVTADHETGGLSLGRDNIYELNVDLWNKQKNSSESLVSALNEAKTIADVKKIVSDNTWITDLTNEEAQYILDGDGSSYKREGGYNAVISKRLLVGWSGHGHSAVDVGVWAYGPIADKVKGQIDNTRIATASAEVLGVDLKKATADLQSKYLYPKFKINRNKEVLFPAKPLAEALGGKYQAANGTATISGMSGTITVDLNAKKAKLSGNSSEITIDVDNDVLYLPLTAFSQITGQTLKWDALSERIMLK
Km [1, 10]: 97 µM
Vmax [1, 10]: 358 IU/mg
Km [1, 11]: 283 µM
Vmax [1, 11]: 380 IU/mg
Km [2, 10]: 165 µM
Vmax [2, 10]: 262 IU/mg
Km [2, 11]: 623 µM
Vmax [2, 11]: 472 IU/mg
Km [3, 10]: 93 µM
Vmax [3, 10]: 631 IU/mg
Km [3, 11]: 121 µM
Vmax [3, 11]: 521 IU/mg

B2: Paenibacillus lentus alkaline phosphatase AP1 heat tolerant mutant APHT (HTAP), SEQ ID NO: 1 (Paenibacillus lentus; … (protein)
chain: B1 chain
Km [4]: 399 ± 68 µM
kcat [4]: 0.1 ± 0.00333 s⁻¹
Km [5]: 242 ± 27 µM
kcat [5]: 0.132 s⁻¹
Km [6]: 166 ± 14 µM
kcat [6]: 0.125 ± 0.00167 s⁻¹

B3: Paenibacillus lentus alkaline phosphatase AP1 (designated "Native"), serine (S) replacement for an aspartic acid (D), SEQ ID NO: 4 (Paenibacillus lentus; D102S) (protein)
chain: ESSNGQSKNLIVLIGDGMGPAQVSAARYFQQHKNNINSLNLDPYYVGQATTYADRGEDGGHIVSGIVTSSASAGTAFATGNKTYNAAISVSNEDVSRPFASVLEAAELSGKSTGLVTTARITHATPAVYASHVRSRDNENAIAFQYLDSGIDVLLGGGESFFVTKEEKGKRNDKNLLPEFEAKGYKVVKTGQSLKSLSAKDAKVLGLFGGSHIAYVPDRSDETPSLAEMTSKALEILSTNENGFAIMIEGGRIDHAGHANDFPTMVQEALDFDEAFKVAIDFAKKDGNTSVVVTADHETGGLSLSRDNIYELNVDLWNKQKNSSESLVSALNEAKTIADVKKIVSDNTWITDLTNEEAQYILDGDGSSYKREGGYNAVISKRLLVGWSGHGHSAVDVGVWAYGPIADKVKGQIDNTRIATASAEVLGVDLKKATADLQSKYLYPKFKINRNKEVLFPAKPLAEALGGKYQAANGTATISGMSGTITVDLNAKKAKLSGNSSSITIDVDNDVLYLPLTAFSQITGQTLKWDALSERIMLK
Km [7, 10]: 110 µM
Vmax [7, 10]: 336 IU/mg
Km [7, 11]: 210 µM
Vmax [7, 11]: 578 IU/mg
Km [8, 10]: 113 µM
Vmax [8, 10]: 356 IU/mg
Km [8, 11]: 199 µM
Vmax [8, 11]: 730 IU/mg
Km [9, 10]: 74 µM
Vmax [9, 10]: 447 IU/mg
Km [9, 11]: 83 µM
Vmax [9, 11]: 608 IU/mg
